According to patent publication US12636342B2, “TARS derived from Akkermansia muciniphila or fragment thereof, and use thereof” (KOREA RESEARCH INSTITUTE OF BIOSCIENCE AND BIOTECHNOLOGY, priority 2020, dated 2026):

Test system: BMDMs
Assay: Global gene expression profiling (RNA sequencing) of BMDMs
Format: cell-based, mouse
Conditions: GSEA (Enrichr)
Method: (A-E) Global gene expression analysis. Total mRNA from BMDMs treated with either AmTARS (0.5 μM) or Pam3 (10 ng ml-1) for 1 or 3 h was isolated and analyzed by RNA sequencing (A). Principle components analysis (PCA) of the gene expression profiles for each sample (B). Hierarchical clustering of gene expression profiles from each sample identified cluster 3 and 4 (C). Gene set enrichment analysis (GSEA) of clusters 3 and 4 with respect to terms related to inflammation (D). […] (F) Overview of the experimental procedures for zebrafish. The yolk of Tg (NFκB:EGFP) transgenic zebrafish larvae (3 dpf) was injected with PBS or AmTARS. Injected larvae were treated at 3 and 5 dpf with 0.5% DSS for 24 h, with a washing period with fresh water for 24 h in between. Sample collection and analysis of Tg (NFκB:EGFP)-based EGFP intensity were conducted at 6 dpf. (G) Representative confocal images showing NF-κB signaling in the mid-distal intestines of PBS- or AmTARS-injected larvae with or without DSS treatment. White dashed lines denote the boundaries of the intestines (based on merged DIC bright field images). (H) Bar graph comparing the fluorescence intensity of the mid-distal intestines of PBS- or AmTARS-injected larvae treated (or not) with DSS (n=32 per PBS group and n=35 per DSS group). (I) Schematic model of the role of AmTARS in maintaining immune homeostasis via TLR2-mediated anti-inflammatory signaling pathways. Data shown in (A-C) are representative and repeated twice. Data shown in (H) are representative of three independent experiments, each similar results (mean±SEM). P-values were calculated by unpaired and two-tailed Student's t-test.
We next performed global gene expression profiling of BMDMs treated with AmTARS or Pam3 for 1 or 3 h (FIG. 32A). […] Subsets of genes showing different expression patterns between AmTARS and Pam3 were classified into six clusters by hierarchical clustering analysis (FIGS. 33A and 33B). The gene expression pattern at 3 h was particularly different for clusters 3 and 4 (FIGS. 32C, 33A, and 33B). […]

B1: Akkermansia muciniphila-derived threonyl-tRNA synthetase (TARS) (protein)
chain: MSEHKERKTLEERQQMSDLERLRHSCAHVLATAICRLWPDAQLAGGPAVDNGFYYDVELDHRISTEDFERIEEEMKKVVKENQVFQKEVISRADAMKMAESGELGALGPRSEPSRFKIDLLNDIPEDEEISLYRNGDFTDLCAGPHVGRTGNCKAFKIMSVASAFYKGDKNRPMLQRIYGTCFPNRTQLDEHLERLEEARRRDHRKLGRELGLFCIDESVGQGLILWKPKGALIRRSLQDFITEELDKLGYSQVYTPNIGKLDLYRTSGHFPYYQESQYAPIPERDAMEKLSQEGASCAELFNGLATGTIEGYMLKPMNCPHHIKIYANDAHSYRDLPVRLAEFGTVYRWEQSGELGGMTRVRGFTQDDAHIFCTPDQLAGEIRQCLGIVKTIFGTLGMTDYRVRLSMRDPESDKYVGSPENWDKAEQALREAAEWLGADYSEEAGEAAFYGPKIDFIVRDAIGREWQLGTVQVDYNLPERFDLHYTGADNKPHRPVMVHRAPFGSMERFTGLLIEHFEGKFPTWLSPEQVRVLPISDKVTDVAAAHRTALAARGVRVTVDETPDKIGAKIRNARLDRVPYMLVLGQREAEDGTVSVRHRDKGDLGAMPFEQFADLVAREIAERHISPVI
modifications: Akkermansia muciniphila TARS
  transcription factors associated with up-regulated genes: up-regulation of the anti-inflammation-related transcription factor CREB
